What was measured:
AncSZ = experiment: phosphorylation enrichment, bacterial display (enrichment ratio); higher = better substrate or ligand; peptides without Tyr show the background
EPHB1 = EPHB1 (UniProt P54762); experiment: as above
EPHB2 = EPHB2 (UniProt P29323); experiment: as above
FGFR1 = FGFR1 (UniProt P11362); experiment: as above
FGFR3 = FGFR3 (UniProt P22607); experiment: as above
Fer (mouse) = experiment: as above
Fes = Fes (UniProt P07332); experiment: as above
Fyn = Fyn (UniProt P06241); experiment: as above
Hck = Hck (UniProt P08631); experiment: as above
Jak2 = Jak2 (UniProt O60674); experiment: as above
MERTK = MERTK (UniProt Q12866); experiment: as above
c-Abl (mouse) = experiment: as above
c-Src = experiment: as above
Grb2 SH2 = Grb2 SH2 (UniProt P62993); experiment: SH2 binding enrichment of the phosphorylated peptide, bacterial display (enrichment ratio); higher = better substrate or ligand; peptides without Tyr show the background
SHP2-C SH2 = experiment: as above
c-Src SH2 = experiment: as above
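Throughout, for SH2 binding enrichment of the phosphorylated peptide, bacterial display: peptide library displayed on the E. coli surface as eCPX fusions, selected cells deep-sequenced, score is each peptide's frequency after selection divided by its frequency in the input.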
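Throughout, for phosphorylation enrichment, bacterial display: 11-residue human phosphosite peptides and single-mutation variants displayed on the E. coli surface, counted by deep sequencing, each peptide's frequency after selection divided by its frequency in the unselected input library; frequency after pTyr selection over input frequency; kinase dosed for 20-30% of maximal phosphorylation in three min.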

Chain of FGFR1 (P11362 whole entry, looked up): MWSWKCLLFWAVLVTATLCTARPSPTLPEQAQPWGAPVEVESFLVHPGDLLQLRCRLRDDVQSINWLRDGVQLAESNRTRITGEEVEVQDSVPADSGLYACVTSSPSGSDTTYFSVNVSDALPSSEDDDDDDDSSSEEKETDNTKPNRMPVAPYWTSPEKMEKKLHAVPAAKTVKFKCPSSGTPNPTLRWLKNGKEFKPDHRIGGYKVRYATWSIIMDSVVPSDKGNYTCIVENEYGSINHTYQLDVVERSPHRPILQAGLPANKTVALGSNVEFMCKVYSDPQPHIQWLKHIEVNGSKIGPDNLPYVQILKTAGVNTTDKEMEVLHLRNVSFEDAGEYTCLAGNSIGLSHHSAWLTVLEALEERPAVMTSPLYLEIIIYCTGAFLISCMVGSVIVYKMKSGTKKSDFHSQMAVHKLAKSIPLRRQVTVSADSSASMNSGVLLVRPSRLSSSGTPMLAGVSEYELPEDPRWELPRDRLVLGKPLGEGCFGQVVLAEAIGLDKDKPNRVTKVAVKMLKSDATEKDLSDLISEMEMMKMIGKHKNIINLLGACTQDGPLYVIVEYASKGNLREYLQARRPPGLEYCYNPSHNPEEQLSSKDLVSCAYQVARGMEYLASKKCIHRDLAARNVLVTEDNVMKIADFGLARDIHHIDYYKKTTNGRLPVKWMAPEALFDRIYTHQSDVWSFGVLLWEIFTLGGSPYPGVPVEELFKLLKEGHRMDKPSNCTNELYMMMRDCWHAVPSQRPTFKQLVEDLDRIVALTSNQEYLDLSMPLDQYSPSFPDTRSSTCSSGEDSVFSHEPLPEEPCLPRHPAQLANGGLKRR
Chain of Fyn (P06241 whole entry, looked up): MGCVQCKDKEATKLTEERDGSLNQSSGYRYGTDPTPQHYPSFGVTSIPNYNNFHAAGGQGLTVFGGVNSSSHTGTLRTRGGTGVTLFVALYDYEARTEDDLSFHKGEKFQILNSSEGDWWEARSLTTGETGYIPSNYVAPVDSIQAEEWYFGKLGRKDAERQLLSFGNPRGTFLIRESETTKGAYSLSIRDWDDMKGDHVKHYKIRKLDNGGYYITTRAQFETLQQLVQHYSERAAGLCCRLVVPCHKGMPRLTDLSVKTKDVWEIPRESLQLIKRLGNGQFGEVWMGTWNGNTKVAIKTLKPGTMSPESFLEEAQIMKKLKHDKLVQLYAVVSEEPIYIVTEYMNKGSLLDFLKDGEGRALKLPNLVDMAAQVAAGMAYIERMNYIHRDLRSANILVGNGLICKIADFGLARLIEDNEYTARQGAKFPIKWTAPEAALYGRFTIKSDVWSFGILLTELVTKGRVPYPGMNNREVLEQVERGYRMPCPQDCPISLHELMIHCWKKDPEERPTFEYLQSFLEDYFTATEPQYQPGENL
Chain of MERTK (Q12866 whole entry, looked up): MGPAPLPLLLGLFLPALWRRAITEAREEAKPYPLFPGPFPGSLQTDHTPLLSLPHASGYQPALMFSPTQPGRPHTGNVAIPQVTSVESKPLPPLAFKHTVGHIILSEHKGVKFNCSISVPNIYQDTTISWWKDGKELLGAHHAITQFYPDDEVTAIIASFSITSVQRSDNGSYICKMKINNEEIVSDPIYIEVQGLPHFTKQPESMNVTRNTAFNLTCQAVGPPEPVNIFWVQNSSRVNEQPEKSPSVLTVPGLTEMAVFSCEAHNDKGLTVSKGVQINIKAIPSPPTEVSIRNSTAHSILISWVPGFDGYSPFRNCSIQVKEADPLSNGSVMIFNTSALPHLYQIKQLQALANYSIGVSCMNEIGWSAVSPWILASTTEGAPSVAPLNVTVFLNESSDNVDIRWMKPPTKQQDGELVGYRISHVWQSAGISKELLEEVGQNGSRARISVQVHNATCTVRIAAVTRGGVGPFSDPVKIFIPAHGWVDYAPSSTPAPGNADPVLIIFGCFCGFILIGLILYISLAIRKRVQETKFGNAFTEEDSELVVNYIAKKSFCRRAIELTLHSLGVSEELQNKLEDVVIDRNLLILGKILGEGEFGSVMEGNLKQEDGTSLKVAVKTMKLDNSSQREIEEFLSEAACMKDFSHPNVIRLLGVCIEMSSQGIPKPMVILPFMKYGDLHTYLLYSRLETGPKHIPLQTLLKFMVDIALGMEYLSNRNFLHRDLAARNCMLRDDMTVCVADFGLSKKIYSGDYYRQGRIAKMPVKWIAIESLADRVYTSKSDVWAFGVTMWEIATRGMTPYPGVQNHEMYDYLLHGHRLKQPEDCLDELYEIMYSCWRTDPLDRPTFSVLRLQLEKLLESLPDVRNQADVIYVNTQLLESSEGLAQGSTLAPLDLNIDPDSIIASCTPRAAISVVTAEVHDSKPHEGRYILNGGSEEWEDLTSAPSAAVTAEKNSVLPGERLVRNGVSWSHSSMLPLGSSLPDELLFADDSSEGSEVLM
Chain of Fes (P07332 whole entry, looked up): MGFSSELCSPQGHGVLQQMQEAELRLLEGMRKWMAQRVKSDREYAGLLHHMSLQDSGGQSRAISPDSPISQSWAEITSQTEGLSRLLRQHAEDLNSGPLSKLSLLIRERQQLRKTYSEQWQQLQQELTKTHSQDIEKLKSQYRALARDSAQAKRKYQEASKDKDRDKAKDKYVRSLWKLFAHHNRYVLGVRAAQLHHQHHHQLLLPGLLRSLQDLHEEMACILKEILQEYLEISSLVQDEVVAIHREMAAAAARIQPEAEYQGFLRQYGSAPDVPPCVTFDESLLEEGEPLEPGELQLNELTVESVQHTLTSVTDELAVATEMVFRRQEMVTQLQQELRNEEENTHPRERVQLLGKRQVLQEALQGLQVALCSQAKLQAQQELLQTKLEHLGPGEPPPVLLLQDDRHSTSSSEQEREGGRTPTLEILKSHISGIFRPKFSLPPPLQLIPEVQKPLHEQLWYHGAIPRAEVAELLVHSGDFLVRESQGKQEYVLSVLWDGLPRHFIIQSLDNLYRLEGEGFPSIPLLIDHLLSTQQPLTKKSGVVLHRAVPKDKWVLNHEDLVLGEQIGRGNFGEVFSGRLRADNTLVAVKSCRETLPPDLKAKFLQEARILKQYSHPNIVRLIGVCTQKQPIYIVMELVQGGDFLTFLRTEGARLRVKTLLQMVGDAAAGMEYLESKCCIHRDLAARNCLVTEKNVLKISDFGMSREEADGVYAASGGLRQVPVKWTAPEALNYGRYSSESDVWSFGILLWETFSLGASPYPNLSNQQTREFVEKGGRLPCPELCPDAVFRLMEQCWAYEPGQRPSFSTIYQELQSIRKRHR
Chain of EPHB1 (P54762 whole entry, looked up): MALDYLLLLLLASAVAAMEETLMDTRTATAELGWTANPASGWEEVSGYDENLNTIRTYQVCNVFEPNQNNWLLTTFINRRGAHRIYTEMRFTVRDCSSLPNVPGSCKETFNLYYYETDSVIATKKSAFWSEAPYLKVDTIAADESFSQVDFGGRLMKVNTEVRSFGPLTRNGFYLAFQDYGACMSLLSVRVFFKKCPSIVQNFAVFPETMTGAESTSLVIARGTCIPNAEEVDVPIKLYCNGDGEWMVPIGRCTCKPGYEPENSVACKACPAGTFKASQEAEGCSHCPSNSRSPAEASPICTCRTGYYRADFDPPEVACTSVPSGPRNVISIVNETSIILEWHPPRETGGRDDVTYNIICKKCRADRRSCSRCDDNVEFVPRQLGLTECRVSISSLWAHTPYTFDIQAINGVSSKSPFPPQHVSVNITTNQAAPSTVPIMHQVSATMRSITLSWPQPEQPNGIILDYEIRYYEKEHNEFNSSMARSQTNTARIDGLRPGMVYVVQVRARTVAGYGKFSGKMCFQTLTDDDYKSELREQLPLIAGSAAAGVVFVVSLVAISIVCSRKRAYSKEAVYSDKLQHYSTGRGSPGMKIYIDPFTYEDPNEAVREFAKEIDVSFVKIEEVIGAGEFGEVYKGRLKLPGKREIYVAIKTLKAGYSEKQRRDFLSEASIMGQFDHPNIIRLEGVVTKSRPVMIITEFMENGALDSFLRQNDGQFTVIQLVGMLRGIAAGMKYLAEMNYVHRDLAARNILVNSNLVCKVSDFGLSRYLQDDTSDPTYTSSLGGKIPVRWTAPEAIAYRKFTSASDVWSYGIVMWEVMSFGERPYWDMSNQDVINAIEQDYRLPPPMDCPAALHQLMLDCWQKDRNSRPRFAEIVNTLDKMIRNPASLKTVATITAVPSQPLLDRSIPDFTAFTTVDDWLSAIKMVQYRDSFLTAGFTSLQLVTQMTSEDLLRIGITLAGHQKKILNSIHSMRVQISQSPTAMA
Chain of FGFR3 (P22607 whole entry, looked up): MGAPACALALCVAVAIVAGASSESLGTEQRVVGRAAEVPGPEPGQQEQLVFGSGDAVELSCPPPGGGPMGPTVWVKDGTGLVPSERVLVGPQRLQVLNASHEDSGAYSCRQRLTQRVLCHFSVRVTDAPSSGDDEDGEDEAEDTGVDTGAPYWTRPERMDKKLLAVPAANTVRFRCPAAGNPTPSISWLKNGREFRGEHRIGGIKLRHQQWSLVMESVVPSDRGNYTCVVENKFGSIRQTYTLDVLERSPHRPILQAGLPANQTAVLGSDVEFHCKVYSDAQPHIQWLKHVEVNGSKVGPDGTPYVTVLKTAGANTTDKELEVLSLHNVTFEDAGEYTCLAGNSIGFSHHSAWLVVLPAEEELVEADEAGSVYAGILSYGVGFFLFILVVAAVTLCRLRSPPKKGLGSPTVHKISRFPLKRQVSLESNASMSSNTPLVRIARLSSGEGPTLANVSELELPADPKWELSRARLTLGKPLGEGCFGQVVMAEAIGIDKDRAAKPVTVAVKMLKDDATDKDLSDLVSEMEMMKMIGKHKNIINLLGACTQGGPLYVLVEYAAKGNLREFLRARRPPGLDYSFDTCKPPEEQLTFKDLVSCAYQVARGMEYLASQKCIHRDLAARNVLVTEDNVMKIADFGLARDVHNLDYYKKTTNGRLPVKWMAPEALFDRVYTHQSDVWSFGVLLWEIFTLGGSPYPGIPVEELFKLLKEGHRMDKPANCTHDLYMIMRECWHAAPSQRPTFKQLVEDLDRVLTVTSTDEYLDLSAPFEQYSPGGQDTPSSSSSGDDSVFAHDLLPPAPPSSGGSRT

| Sequence | SH2 binding enrichment (Grb2 SH2) | SH2 binding enrichment (SHP2-C SH2) | SH2 binding enrichment (c-Src SH2) | phosphorylation enrichment (AncSZ) | phosphorylation enrichment (EPHB1) | phosphorylation enrichment (EPHB2) | phosphorylation enrichment (FGFR1) | phosphorylation enrichment (FGFR3) | phosphorylation enrichment (Fer (mouse)) | phosphorylation enrichment (Fes) | phosphorylation enrichment (Fyn) | phosphorylation enrichment (Hck) | phosphorylation enrichment (Jak2) | phosphorylation enrichment (MERTK) | phosphorylation enrichment (c-Abl (mouse)) | phosphorylation enrichment (c-Src) |
| --- | --- | --- | --- | --- | --- | --- | --- | --- | --- | --- | --- | --- | --- | --- | --- | --- |
| PSQRRYLFFFS [PTEN_Y174_V175L_YF] | 0.936 | 1.15 | 0.655 | 1.86 | 0.818 | 0.804 | 0.607 | 0.915 | 0.531 | 1.93 | 0.753 | 0.716 | 1.74 | 0.756 | 0.991 | 0.441 |
| PSRKDYETYQP [CTNND2_Y1154] | 0.905 | 0.818 | 0.597 | 1.04 | 1.49 | 2.62 | 0.592 | 0.695 | 0.485 | 1.02 | 0.55 | 0.873 | 0.677 | 0.6 | 0.95 | 0.62 |
| PTYEHYANSTQ [SLC12A3_Y70] | 1.75 | 0.663 | 2.47 | 1.05 | 1.2 | 2.33 | 0.492 | 0.807 | 0.828 | 1.2 | 2.56 | 1.53 | 0.924 | 0.912 | 0.753 | 5.29 |
| PVEAAYQKVVA [HBB_Y131_Q128E] | 0.725 | 0.713 | 0.964 | 0.819 | 0.397 | 0.401 | 0.573 | 0.617 | 0.558 | 0.695 | 0.56 | 0.612 | 0.556 | 0.52 | 0.601 | 0.517 |
| QEITTYRRLLE [KRT14_Y415_A413T] | 0.915 | 0.598 | 0.493 | 1.03 | 0.619 | 0.548 | 0.657 | 0.78 | 0.505 | 1.11 | 0.708 | 0.542 | 1.07 | 0.416 | 0.815 | 0.649 |
| QELRRYLKSGI [MICA_Y194_V199I] | 0.747 | 0.525 | 0.434 | 0.489 | 0.332 | 0.281 | 0.429 | 0.313 | 0.534 | 0.458 | 0.482 | 0.496 | 0.335 | 0.406 | 0.402 | 0.294 |
| QHNPEYVQQAS [LRRC7_Y1058] | 0.712 | 0.64 | 0.561 | 0.843 | 0.542 | 0.604 | 0.486 | 0.65 | 0.73 | 0.867 | 0.486 | 0.69 | 0.544 | 0.423 | 0.641 | 0.597 |
| QHVPDYRQNGF [PCDHGA1_Y890_V894G_YF] | 0.776 | 0.633 | 0.494 | 0.787 | 0.589 | 0.459 | 0.55 | 0.597 | 0.503 | 0.875 | 0.531 | 0.455 | 0.826 | 0.464 | 0.758 | 0.543 |
| QHVPDYRQNVF [PCDHGA1_Y890_YF] | 0.888 | 0.678 | 0.508 | 0.889 | 0.583 | 0.597 | 0.59 | 0.704 | 0.578 | 1.03 | 0.602 | 0.585 | 0.991 | 0.54 | 0.798 | 0.572 |
| QKKPCYEIRWK [PDGFRB_Y562_R561C] | 1.55 | 2.56 | 1.73 | 1.43 | 0.958 | 1.48 | 0.914 | 2.08 | 1.02 | 1.03 | 0.983 | 1.02 | 0.653 | 0.67 | 0.652 | 0.361 |
| QKPLDYFRVNL [GALE_Y104_YF] | 1.05 | 0.68 | 0.747 | 1.41 | 1 | 0.636 | 7.69 | 4.41 | 0.643 | 1.59 | 0.58 | 0.647 | 8.52 | 0.647 | 0.905 | 0.711 |

Second part, led by results:

| SH2 binding enrichment (Grb2 SH2) | SH2 binding enrichment (SHP2-C SH2) | SH2 binding enrichment (c-Src SH2) | Sequence | phosphorylation enrichment (AncSZ) | phosphorylation enrichment (EPHB1) | phosphorylation enrichment (EPHB2) | phosphorylation enrichment (FGFR1) | phosphorylation enrichment (FGFR3) | phosphorylation enrichment (Fer (mouse)) | phosphorylation enrichment (Fes) | phosphorylation enrichment (Fyn) | phosphorylation enrichment (Hck) | phosphorylation enrichment (Jak2) | phosphorylation enrichment (MERTK) | phosphorylation enrichment (c-Abl (mouse)) | phosphorylation enrichment (c-Src) |
| --- | --- | --- | --- | --- | --- | --- | --- | --- | --- | --- | --- | --- | --- | --- | --- | --- |
| 0.847 | 0.82 | 0.617 | PTATSYNPNLA [GABRA1_Y375_T376N] | 1.39 | 0.808 | 0.607 | 0.864 | 0.878 | 0.824 | 1.34 | 0.748 | 0.621 | 1.55 | 1.06 | 1.57 | 1.43 |
| 0.665 | 4.74 | 1.95 | PVKSEYSSIKL [NPC2_Y119_P120S] | 0.783 | 0.579 | 0.533 | 0.518 | 0.523 | 0.702 | 1.06 | 0.553 | 1.11 | 0.737 | 0.5 | 1.03 | 0.602 |
| 2.51 | 0.773 | 5.18 | PYSSPYENSLI [EPOR_Y489_N487S] | 0.83 | 0.39 | 0.596 | 0.527 | 0.506 | 2.52 | 0.924 | 0.668 | 0.705 | 0.929 | 0.683 | 0.902 | 0.875 |
| 1.02 | 0.9 | 0.525 | QFPDIYAREEV [CRX_Y67_V66I_YF] | 1.82 | 0.628 | 1.21 | 1.15 | 1.26 | 0.707 | 1.91 | 0.959 | 1.56 | 2.02 | 0.773 | 0.99 | 1.23 |
| 0.733 | 0.562 | 0.537 | QGIPRYHSQSP [FOXF1_Y331] | 1.01 | 0.783 | 0.849 | 0.821 | 0.677 | 0.744 | 1.58 | 0.796 | 1.02 | 0.691 | 1.22 | 1.4 | 1.08 |
| 0.9 | 1.14 | 0.516 | QKDIFYGLRSL [IGSF10_Y126_T124I] | 0.894 | 0.672 | 0.616 | 0.515 | 0.73 | 0.405 | 1.29 | 0.783 | 0.676 | 1.12 | 0.844 | 1.03 | 0.923 |
